One protein from patent US5733890A, “Adenylate analogs as potent anti-herpes virus agents” (National Science Council, priority 1996, dated 1998) can be followed below.

Assay in all cases: Deamination kinetics of compounds as substrates of adenosine deaminase
Common to all, as to type: biochemical, calf
Holding throughout (settings): other: adenosine deaminase substrate; buffer solutions

Substrate in series [1]: Nc1ncnc2c1ncn2COCCP(=O)(O)O[C@H]1[C@H](O)[C@H](n2cnc3c(N)ncnc32)O[C@@H]1CO
The text has this: (§1) By following an established procedure [Ogilvie, K. K.; Nguyen-Ba, N.; Gillen, M. F.; Radatus, B. K.; Cheriyan, U. O.; Hanna, H. R.; Smith, K. O.; Galloway, K. S. Synthesis of A Purine Acyclonucleoside Series Having Pronounced Antiviral Activity. The Glyceropurines. Can. J. Chem. 1984, 62, 241-252.], we determined the rates of deamination of VI, 13, 37, 40, and 42 in the presence of calf mucosal adenosine deaminase (EC 3.5.4.4) in buffer solutions.

Substrate in series [2]: Nc1ncnc2c1ncn2[C@@H]1O[C@H](CO)[C@@H](O)[C@@H]1O
Source text: as §1

Substrate in series [3]: Nc1ncnc2c1ncn2COCCO
Source text: as §1

Substrate in series [4]: Nc1ncnc2c1ncn2COCCP(=O)(O)O
Source text: as §1

B1: calf mucosal adenosine deaminase (EC 3.5.4.4) (Bos taurus) (protein)
chain: MAQTPAFNKPKVELHVHLDGAIKPETILYYGRKRGIALPADTPEELQNIIGMDKPLSLPEFLAKFDYYMPAIAGCREAVKRIAYEFVEMKAKDGVVYVEVRYSPHLLANSKVEPIPWNQAEGDLTPDEVVSLVNQGLQEGERDFGVKVRSILCCMRHQPSWSSEVVELCKKYREQTVVAIDLAGDETIEGSSLFPGHVKAYAEAVKSGVHRTVHAGEVGSANVVKEAVDTLKTERLGHGYHTLEDATLYNRLRQENMHFEVCPWSSYLTGAWKPDTEHPVVRFKNDQVNYSLNTDDPLIFKSTLDTDYQMTKNEMGFTEEEFKRLNINAAKSSFLPEDEKKELLDLLYKAYGMPSPASAEQCL
notes: calf mucosal adenosine deaminase; from tissue; host or cells: calf mucosa
B1: the Km in series [1] came out at 166.2 µM; in series [2] it was 45.3 µM; in series [3], 138.0 µM; in series [4], 247.5 µM.

Usually Km stands for the concentration of substrate that gives half-maximal velocity.
